Assay results as given in US20070218504A1, “HUMAN LEPTIN-DERIVED POLYPEPTIDES AND USES THEREOF” (UNIVERSITY OF PITTSBURGH, priority 2006, published 2007).
Entries after “also recorded” stand apart in the source; their conditions may differ. Values belong to the molecule of their own block, whether it stands above or below them.

How the values were obtained:
human CRP = target: T1, human CRP (Homo sapiens, UniProt P02741); assay: Polypeptide blocking of human CRP inhibition of leptin-stimulated STAT3 tyrosine phosphorylation in HEK-293 cells over-expressing OB-Rb; type: cell-based; conditions: for restoration of leptin-stimulated STAT3 activation in presence of human CRP, Example 8 comparison: human CRP 8 μg/ml, human leptin 2 nM, 1 hour pre-incubation, up to 0.8 μM (800 nM); for effect of polypeptide by itself on STAT phosphorylation: control, polypeptide alone; for blocking of the inhibitory effect of human CRP on leptin signaling (STAT3 tyrosine phosphorylation): polypeptide pre-incubated with human CRP 30 minutes, then human leptin 45 minutes
T1 construct: purchased CHEMICON or EMD Biosciences
T1 sequence (P02741 19-224): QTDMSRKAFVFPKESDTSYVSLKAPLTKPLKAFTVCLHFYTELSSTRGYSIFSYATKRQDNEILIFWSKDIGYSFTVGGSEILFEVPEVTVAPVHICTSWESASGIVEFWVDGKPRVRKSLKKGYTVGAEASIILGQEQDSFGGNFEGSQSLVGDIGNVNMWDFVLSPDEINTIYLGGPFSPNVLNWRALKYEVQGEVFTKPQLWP
Protocol: In the in vitro experiment, each of these polypeptide was pre-incubated with human CRP for 30 minutes before being mixed with human leptin for an additional 45 minutes. The resultant mixture was then added to the HEK-293 cells over-exprssing the long form leptin receptors, OB-Rb. After a 30-minute incubation, the cells were harvested in a protein extraction buffer (18). The signaling of leptin in the cells, measured by its ability to stimulate tyrosine phosphorylation on STAT3 in a western blot assay, was evaluated (see FIGS. 8, 9, 10 for polypeptides B, C1 and E, respectively).
Pursuant to an in vitro protocol similar to that described in Example 6, a hexamer disclosed in U.S. Pat. No. 6,777,388, NH2—S—C—H-L-P—W—COOH (SEQ ID NO:18), was pre-incubated with human CRP (8 μg/ml) and human leptin (2 nM) for 1 hour. The resultant mixture then was added to HEK-293 cells that over-expressed the long form leptin receptor, OB—Rb. After a 30-minute incubation, the cells were harvested in a protein extraction buffer. To evaluate signaling of human leptin in the cells, tyrosine phosphorylation on STAT3 was measured in a western blot assay.

ob/ob mice [1] = assay: Co-infusion of polypeptide E with human CRP and leptin through mini-osmotic pumps into ob/ob mice; type: in vivo, mouse; conditions: for restoration of satiety and weight-reducing effects of human leptin (food intake, body weight): Pep-E 24 or 48 μg/day/mouse with human CRP 48 μg/day/mouse and leptin 12 μg/day/mouse
Protocol: FIG. 11. […] Infusion dosages for human CRP and leptin were 48 μg/day/mouse and 12 μg/day/mouse, respectively. The infusion rate for Pep-E (P) was 24 μg/day/mouse (medium dosage, “m”) and 48 μg/day/mouse (high dosage, “h”). Food-intake (A and C) and body weight (B and D) were monitored daily throughout the infusion. The arrows in A-D indicate the day of surgery. At the end of infusion, blood samples were collected for the measurement of blood-glucose, human CRP, and human leptin. The serum concentrations of human CRP and human leptin were 0.85±0.1 μg/ml and 18 ng±2 ng/ml, respectively. […] Also shown is glucose concentration from mice infused with human CRP and leptin but not with Pep-E.
In the in vivo experiment, polypeptide E was co-infused through mini-osmotic pumps with human CRP and leptin into the ob/ob mice. Food intake in the period of 24 hours and body weight were followed during the infusion period (FIGS. 11A-11D).

[2] = system: tyrosine phosphorylation of STAT3; assay: Leptin-induced tyrosine phosphorylation of STAT3 in HEK293 cells over-expressing OB-Rb in the presence of CRP (Western blot); type: cell-based, human; conditions: separate control, concentrations much higher than CRP
Protocol: To determine if the interaction between CRP and leptin dampens the cellular actions of leptin, the ability of leptin to stimulate tyrosine phosphorylation of STAT3 and PI3-kinase activity was assessed in the presence of CRP in vitro. HEK293 cells over-expressing OB-Rb were serum starved for 2 hours before addition of leptin and CRP (CHEMICON or EMD Biosciences). Leptin, in the presence or absence of CRP, was pre-incubated in μ-MEM (with additional 1 mM Ca^2+) for 30 minutes at 37° C. before being applied to the cells. After a 30-minute incubation with leptin, the cells were harvested in lysis buffer (18). The resultant protein extract was subjected to a Western blot analysis using an anti-phospho-STAT3 specific antibody (Cell Signaling, Beverly, Mass.). For studies involving primary hypothalamic neurons, the hypothalamus from rats was surgically isolated immediately after euthanasia, and placed in the DMEM for incubation with leptin in the presence or absence of CRP.

[3] = target: long-form human leptin receptor, OB-Rb (human) (UniProt P48357); assay: 125I-human leptin binding to HEK293 cells stably transfected with human OB-Rb
Sequence of long-form human leptin receptor, OB-Rb (human) (P48357 22-1165): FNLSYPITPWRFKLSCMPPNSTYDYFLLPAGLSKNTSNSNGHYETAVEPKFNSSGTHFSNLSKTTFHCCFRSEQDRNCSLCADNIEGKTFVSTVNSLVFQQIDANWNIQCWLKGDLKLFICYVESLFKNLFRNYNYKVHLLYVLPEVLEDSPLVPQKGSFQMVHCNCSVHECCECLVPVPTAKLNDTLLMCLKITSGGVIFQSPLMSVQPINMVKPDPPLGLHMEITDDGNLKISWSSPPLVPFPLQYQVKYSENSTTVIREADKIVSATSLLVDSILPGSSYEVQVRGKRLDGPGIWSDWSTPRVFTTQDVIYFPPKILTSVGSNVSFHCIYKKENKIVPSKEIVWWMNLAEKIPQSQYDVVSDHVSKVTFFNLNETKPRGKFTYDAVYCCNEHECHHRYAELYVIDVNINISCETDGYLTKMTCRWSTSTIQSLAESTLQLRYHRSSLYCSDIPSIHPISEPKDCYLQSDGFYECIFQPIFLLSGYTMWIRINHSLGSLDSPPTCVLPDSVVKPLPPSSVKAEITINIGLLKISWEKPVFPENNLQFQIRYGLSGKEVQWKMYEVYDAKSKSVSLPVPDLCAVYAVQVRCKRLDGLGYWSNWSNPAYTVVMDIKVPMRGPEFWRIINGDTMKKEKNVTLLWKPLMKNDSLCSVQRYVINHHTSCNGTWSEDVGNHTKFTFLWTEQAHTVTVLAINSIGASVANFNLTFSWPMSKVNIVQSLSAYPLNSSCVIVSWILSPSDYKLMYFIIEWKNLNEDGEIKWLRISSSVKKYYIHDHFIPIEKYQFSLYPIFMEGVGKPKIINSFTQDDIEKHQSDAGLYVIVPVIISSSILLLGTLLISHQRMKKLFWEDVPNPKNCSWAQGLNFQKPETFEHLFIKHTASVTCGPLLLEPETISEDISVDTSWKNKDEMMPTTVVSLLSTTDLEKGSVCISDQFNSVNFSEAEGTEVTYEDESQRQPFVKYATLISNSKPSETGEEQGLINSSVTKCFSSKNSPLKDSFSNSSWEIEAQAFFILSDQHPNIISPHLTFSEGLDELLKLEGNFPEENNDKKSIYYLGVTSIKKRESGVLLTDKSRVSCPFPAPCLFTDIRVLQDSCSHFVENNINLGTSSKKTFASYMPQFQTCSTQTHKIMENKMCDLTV

human leptin = target: T2, human leptin (human, UniProt P41159 22-167, 125I-labelled (Iodogen method) in the receptor binding assay of Example 3); assay: human CRP pre-incubated with 125I-human leptin (~2 ng/ml); inhibition of leptin binding to OB-Rb on HEK293 cells
T2 construct: Recombinant human leptin from AF Parlow, NHPP; also called recombinant human leptin
Protocol: After 10-minute incubation at room temperature, the reaction was stopped with 100 μl 0.1% trifluoroacetic acid (TFA). The reaction mixture was immediately purified by reverse-phase HPLC. The separation employed a 5-minute isocratic step at 20% eluant B in A, followed by two consecutive 30 min linear gradients from 20 to 50%, then from 50 to 60% eluant B in A (where eluant A is water containing 0.1% TFA and eluant B is acetonitrile containing 0.1% TFA) at a flow rate of 1.5 ml/min. […] The incubation would last for 3 hour at 4° C. before the media was aspirated and the cells were dissolved in 0.1N NaOH for scintillation counting.

rat C-reactive protein = target: T3, rat C-reactive protein (rat, UniProt P48199 20-230); assay: rat serum on mouse leptin-Sepharose affinity column; eluted band identified by MALDI-TOF
T3 construct: mature; also called rat CRP; rat SLIP-1
T3 sequence (looked up): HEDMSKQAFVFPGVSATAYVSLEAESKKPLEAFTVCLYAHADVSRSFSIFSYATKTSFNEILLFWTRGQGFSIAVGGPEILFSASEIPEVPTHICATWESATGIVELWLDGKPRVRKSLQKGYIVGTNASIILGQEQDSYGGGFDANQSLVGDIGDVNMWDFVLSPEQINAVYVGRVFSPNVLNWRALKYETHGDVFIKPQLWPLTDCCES
Protocol: Retained material was eluted with an acidic glycine solution, and the eluate was immediately neutralized in a Tris-buffer (50 mM, pH=9.5).
The mass-spec assay was performed on Thermo Finnigan LTQ mass spectrometer by CTO-BIO Services (Rockville, Md.). Data analysis was carried out with the Turbo-Sequest software.

ob/ob mice [4] = assay: Intracerebralventricular (i.c.v.) injection of human CRP and leptin in ob/ob mice, food intake and body weight; type: in vivo, mouse
[5] = mouse leptin i.c.v. after human CRP

Molecule: NH2—S—C—H-L-P—W—COOH (H-SCHLPW-OH) [hexamer, hexamer disclosed in U.S. Pat. No. 6,777,388, reference compound]
restoration of leptin-stimulated STAT3 activation in presence of human CRP, Example 8 comparison (human CRP): unable to block
restoration of leptin-stimulated STAT3 activation in presence of human CRP, Example 8 comparison (human CRP; listed as L-form): failed to restore

Molecule: KVQDDTKTLIKTIVTRINDISHTQS (listed as Homo sapiens) [polypeptide B, chemically synthesized human leptin-derived polypeptide, residues 26 to 50]
effect of polypeptide by itself on STAT phosphorylation (human CRP): did not induce any changes; also recorded: does not have any effect
blocking of the inhibitory effect of human CRP on leptin signaling (STAT3 tyrosine phosphorylation) (human CRP): able to block the inhibitory effect of human CRP and to restore leptin signaling

Molecule: human serum amyloid P component: control serum protein circulating at much higher concentrations than CRP [reference compound]
effect of control serum protein on leptin-induced STAT3 phosphorylation / leptin signaling [2]: did not influence leptin signaling

Molecule: H-WPLHCS-OH [D-form, reference compound]
restoration of leptin-stimulated STAT3 activation in presence of human CRP, Example 8 comparison (human CRP): failed to restore

B2: mouse leptin (ligand, UniProt P41160 22-167, looked up)
chain: VPIQKVQDDTKTLIKTIVTRINDISHTQSVSAKQRVTGLDFIPGLHPILSLSKMDQTLAVYQQVLTSLPSQNVLQIANDLENLRDLLHLLAFSKSCSLPQTSGLQKPESLDGVLEASLYSTEVVALSRLQGSLQDILQQLDVSPEC
modifications: 125I-labelled in the receptor binding assay of FIG. 4B
notes: also called murine-leptin; recombinant mouse leptin
binding result (rat C-reactive protein): binds

B3: Mouse leptin: mouse recombinant leptin (protein)
chain: B2 chain
decrease of food intake, PBS pre-injection (ob/ob mice [4]; mouse leptin i.c.v. after PBS): 32.9%
reduction of body weight, PBS pre-injection (ob/ob mice [4]; mouse leptin i.c.v. after PBS): 1.80%
decrease of food intake, human CRP pre-injection (ob/ob mice [4]; [5]): 32.4%
reduction of body weight, human CRP pre-injection (ob/ob mice [4]; [5]): 1.76%

Second part, led by results:

effect of polypeptide by itself on STAT phosphorylation (human CRP; listed as Peptide-E): did not induce any changes
restoration of leptin-stimulated STAT3 activation in presence of human CRP, Example 8 comparison (human CRP): able to restore
restoration of leptin-stimulated STAT3 activation in presence of human CRP, Example 8 comparison (human CRP; listed as Peptide-E): blocked the inhibitory effect
Molecule: LAFSKSCHLPWASGLETLDSLGGVLEA (listed as Homo sapiens) [polypeptide E, chemically synthesized human leptin-derived polypeptide, residues 111 to 137]
restoration of satiety and weight-reducing effects of human leptin (food intake, body weight) (ob/ob mice [1]): able to restore both of these functions
restoration of satiety and weight-reducing effects of human leptin (food intake, body weight) (ob/ob mice [1]; listed as Peptide-E): restored the physiological effects of human leptin
restoration of effect of human leptin on blood glucose (ob/ob mice [1]; end of infusion, high dosage Pep-E): able to restore the beneficial effect
effect of polypeptide by itself on STAT phosphorylation (human CRP): did not induce any changes; also recorded: does not have any effect
blocking of the inhibitory effect of human CRP on leptin signaling (STAT3 tyrosine phosphorylation) (human CRP): able to block the inhibitory effect of human CRP and to restore leptin signaling

Kd [3]: 1 nM
Molecule: human leptin (from UniProt P41159 22-167) (ligand)

concentration at which the maximal effect can be reached (human CRP; FIG. 9A): 50 nM
effect of higher concentration (human CRP; FIG. 9B): does not further improve its effect
relative effectiveness in blocking the CRP activity on leptin (human CRP; compared with the other polypeptides): more effective at a lower concentration
Molecule: VSSKQKVTGLDFIPGLHPILTLSKM (listed as Homo sapiens) [polypeptide C1, chemically synthesized human leptin-derived polypeptide, residues 51 to 75]
effect of polypeptide by itself on STAT phosphorylation (human CRP): did not induce any changes; also recorded: does not have any effect
blocking of the inhibitory effect of human CRP on leptin signaling (STAT3 tyrosine phosphorylation) (human CRP): able to block the inhibitory effect of human CRP and to restore leptin signaling

IC50 (human leptin): ~0.08 µg/mL
molecular ratio (CRP:leptin) at the IC50 (human leptin): 5.8
B1: human C-reactive protein (other, UniProt P02741 19-224, looked up)
chain: T1 sequence (P02741 19-224)
notes: also called human CRP; CRP
